Measurements reported in paper doi:10.1101/172908 (bioRxiv, 2017).

Target: the molecule itself
Assay: cryo-EM structure

B1: rat Kir6.2 (natural protein)
chain: MLSRKGIIPEEYVLTRLAEDPTEPRYRTRERRARFVSKKGNCNVAHKNIREQGRFLQDVFTTLVDLKWPHTLLIFTMSFLCSWLLFAMVWWLIAFAHGDLAPGEGTNVPCVTSIHSFSSAFLFSIEVQVTIGFGGRMVTEECPLAILILIVQNIVGLMINAIMLGCIFMKTAQAHRRAETLIFSKHAVITLRHGRLCFMLRVGDLRKSMIISATIHMQVVRKTTSPEGEVVPLHQVDIPMENGVGGNSIFLVAPLIIYHVIDSNSPLYDLAPSDLHHHQDLEIIVILEGVVETTGITTQARTSYLADEILWGQRFVPIVAEEDGRYSVDYSKFGNTVKVPTPLCTARQLDEDRSLLDALTLASSRGPLRKRSVAVAKAKPKFSISPDSLS
- stoichiometry N: 4
